Laboratory results reported in the Human Domainome abundance scans (Beltran et al. 2025).
± gives the uncertainty stated by the source.

B1: Histone-lysine N-methyltransferase 2A, residues 1148 to 1194; numbered along this chain, Q03164 (parent)
chain: KGRRSRRCGQCPGCQVPEDCGVCTNCLDKPKFGGRNIKKQCCKMRKC
B2: RNA-binding E3 ubiquitin-protein ligase MEX3C, residues 325 to 391; numbered along this chain, Q5U5Q3 (parent)
chain: GQTTVQVRVPYRVVGLVVGPKGATIKRIQQQTHTYIVTPSRDKEPVFEVTGMPENVDRAREEIEMHI

Variants of: B1
Test: abundance fitness (aPCA) (normalised: wild type 0, dead -1); higher = more abundant; growth selection in yeast, the domain comes from the species named
Details: Homo sapiens

Variant	abundance fitness
K29Y	-0.564 ± 0.25
K43R	-0.27 ± 0.076
M44R	-0.023 ± 0.076
D19F	-1.02 ± 0.21
T24I	-0.345 ± 0.12
G21T	-0.894 ± 0.16
R4D	0.045 ± 0.15
N36W	-0.595 ± 0.11
I37R	-0.421 ± 0.082
G9I	-0.452 ± 0.13
P12E	-0.439 ± 0.12
S5C	-0.644 ± 0.12
I37T	-0.153 ± 0.13
K39T	-0.187 ± 0.12
K43F	-0.224 ± 0.097
K31Y	-0.253 ± 0.086
N36Q	0.151 ± 0.18
R3D	-0.185 ± 0.18
R7P	0.294 ± 0.12
C23H	-1.07 ± 0.26
C42R	-0.569 ± 0.091
C11S	-0.55 ± 0.09
I37K	-0.166 ± 0.16
T24A	-0.143 ± 0.099

Variant	abundance fitness
P12K	-0.75 ± 0.16
D28N	-0.326 ± 0.11
R4M	0.141 ± 0.12
G13Y	-0.393 ± 0.11
K38W	-0.245 ± 0.14
C26F	-0.991 ± 0.27
R7F	-0.192 ± 0.15
P17I	-0.358 ± 0.2
Q15R	-0.19 ± 0.093
Q10G	-0.235 ± 0.086
M44P	-0.659 ± 0.16
D19N	-0.624 ± 0.18
G13N	-0.266 ± 0.11
C41N	0.27 ± 0.17
K1D	-0.341 ± 0.28
R6W	-0.064 ± 0.11
Q15H	-0.355 ± 0.18
D19W	-0.861 ± 0.2
D19C	-0.977 ± 0.2
C8F	-0.704 ± 0.15
G34V	-0.453 ± 0.084
R35M	0.143 ± 0.1
L27D	-0.419 ± 0.19
C26E	-0.81 ± 0.18

Variant	abundance fitness
R35V	-0.089 ± 0.074
P17C	-0.367 ± 0.12
K29G	-0.463 ± 0.13
V16C	-0.468 ± 0.15
C11F	-0.719 ± 0.18
E18D	-0.182 ± 0.15
R35N	0.343 ± 0.14
C20Y	-0.994 ± 0.15
Q15D	-0.463 ± 0.16
C11E	-0.799 ± 0.16
C14W	-0.727 ± 0.12
K39E	0.156 ± 0.13
G13I	-0.606 ± 0.13
R6K	-0.143 ± 0.13
C11Q	-0.915 ± 0.17
T24F	-0.412 ± 0.13
N36R	-0.672 ± 0.1
I37E	0.274 ± 0.12
K1T	-0.659 ± 0.21
C8V	-0.691 ± 0.095
G33N	-0.289 ± 0.16
L27S	-0.554 ± 0.1
P17S	0.026 ± 0.091
P30I	-0.256 ± 0.21

Variant	abundance fitness
S5R	-0.226 ± 0.098
I37G	-0.056 ± 0.072
P17E	0.074 ± 0.11
C20A	-0.961 ± 0.13
M44T	-0.283 ± 0.1
F32Y	-0.068 ± 0.087
V22N	-0.28 ± 0.12
P30K	-0.669 ± 0.19
C20P	-0.947 ± 0.21
R35K	0.19 ± 0.12
C42I	-1 ± 0.18
R35Y	-0.036 ± 0.16
D28R	-0.618 ± 0.11
K38Q	-0.348 ± 0.15
C20W	-0.95 ± 0.14
R45I	-0.439 ± 0.17
R4I	-0.074 ± 0.16
K39R	-0.185 ± 0.086
C42F	-0.647 ± 0.11
G33W	-0.853 ± 0.15
P12V	-0.712 ± 0.11
Q10L	-0.322 ± 0.083
Q40A	-0.317 ± 0.11
C11L	-0.967 ± 0.11

Variant	abundance fitness
I37Y	-0.265 ± 0.22
P30E	0.109 ± 0.13
L27W	-0.554 ± 0.12
C41W	-0.095 ± 0.1
C23F	-1 ± 0.19
K46D	0.231 ± 0.21
K43L	0.07 ± 0.08
R7H	-0.435 ± 0.36
G9D	-0.773 ± 0.093
G21H	-0.375 ± 0.19
R45T	-0.597 ± 0.12
K31T	-0.264 ± 0.082
K46C	-0.17 ± 0.22
N25H	-0.374 ± 0.14
K1Y	-0.299 ± 0.33
C42L	-0.651 ± 0.097
L27P	-0.799 ± 0.2
K39L	-0.086 ± 0.091
L27R	-0.35 ± 0.096
Q10W	-0.381 ± 0.11
K39Y	-0.683 ± 0.21
K43Q	-0.215 ± 0.12
K31E	-0.271 ± 0.19
P12C	-0.758 ± 0.14

Variant	abundance fitness
N36H	-0.076 ± 0.18
Q15I	-0.185 ± 0.16
K31L	-0.316 ± 0.074
D19Q	-1.05 ± 0.19
R3H	-0.403 ± 0.25
D28A	-0.475 ± 0.11
C41D	0.3 ± 0.16
I37M	0.002 ± 0.13
P17G	-0.082 ± 0.084
K39V	0.063 ± 0.083
Q10E	-0.183 ± 0.12
G21R	-0.416 ± 0.09
G2V	-0.275 ± 0.098
E18W	-0.1 ± 0.12
G33L	-0.631 ± 0.099
V16E	-0.522 ± 0.11
G21I	-0.995 ± 0.24
G9F	-0.469 ± 0.1
D28F	-0.856 ± 0.15
K31P	-0.227 ± 0.086
C8R	-0.809 ± 0.1
F32W	-0.337 ± 0.14

Variants of: B2
Test: as above
Details: Homo sapiens

Variant	abundance fitness
G1A	-0.27 ± 0.44
G1D	-0.136 ± 0.066
G1R	-0.022 ± 0.31
G1S	-0.094 ± 0.085
G1V	-0.283 ± 0.3
Q2A	-0.409 ± 0.1
Q2C	-0.148 ± 0.093
Q2D	-0.155 ± 0.18
Q2E	-0.022 ± 0.089
Q2F	0.057 ± 0.088
Q2G	-0.403 ± 0.073
Q2H	0.017 ± 0.12
Q2I	-0.174 ± 0.18
Q2K	0.145 ± 0.089
Q2L	0.017 ± 0.06
Q2M	-0.001 ± 0.13
Q2N	-0.061 ± 0.092
Q2P	-0.181 ± 0.082
Q2R	-0.208 ± 0.053
Q2S	-0.356 ± 0.098
Q2V	-0.069 ± 0.078
Q2W	-0.302 ± 0.081
Q2Y	-0.047 ± 0.12
T3A	-0.799 ± 0.11
T3C	-0.256 ± 0.11
